The text below walks through data of patent US20260015426A1 (23ANDME, published 2026).

Assay [1] deals with T1, hu-M-IL1RAP construct, positions S21-T367 (extracellular domain of the membrane form of human IL1RAP) (human, UniProt Q9NPH3 21-367).
T1 construct: Biotinylated when captured on the Biacore chip
T1 sequence: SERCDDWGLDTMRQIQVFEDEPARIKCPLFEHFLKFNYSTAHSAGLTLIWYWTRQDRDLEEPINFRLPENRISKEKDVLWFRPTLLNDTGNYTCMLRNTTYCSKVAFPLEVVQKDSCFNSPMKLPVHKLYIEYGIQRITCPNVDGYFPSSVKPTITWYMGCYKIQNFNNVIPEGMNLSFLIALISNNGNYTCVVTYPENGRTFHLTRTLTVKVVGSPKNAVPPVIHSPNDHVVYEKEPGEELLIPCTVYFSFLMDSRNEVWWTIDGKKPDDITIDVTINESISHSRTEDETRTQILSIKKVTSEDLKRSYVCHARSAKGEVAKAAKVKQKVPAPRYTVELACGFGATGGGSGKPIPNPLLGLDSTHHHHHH
Put plainly: BLI (OCTET), mAb captured, 25 C.
Experimental: All samples were placed in black 96-well plates and the experiment was performed at 25° C. […] The biosensors were equilibrated in experimental buffer at 25° C. for ten minutes prior to starting the experiment.
The resulting BLI signal from analyte association and dissociation from the immobilized antibody was analyzed using the Octet Data Analysis software (Pall ForteBio). First, a reference subtraction was performed on all recorded traces using the reference well (biosensor that underwent the same steps as experimental wells but no analyte for the Association step), then all the traces were aligned to the beginning of the Association step.

Assay [2] concerns the target T2, human IL1RAP (hu-IL1RAP) on human cells (human, UniProt Q9NPH3 21-570).
T2 sequence: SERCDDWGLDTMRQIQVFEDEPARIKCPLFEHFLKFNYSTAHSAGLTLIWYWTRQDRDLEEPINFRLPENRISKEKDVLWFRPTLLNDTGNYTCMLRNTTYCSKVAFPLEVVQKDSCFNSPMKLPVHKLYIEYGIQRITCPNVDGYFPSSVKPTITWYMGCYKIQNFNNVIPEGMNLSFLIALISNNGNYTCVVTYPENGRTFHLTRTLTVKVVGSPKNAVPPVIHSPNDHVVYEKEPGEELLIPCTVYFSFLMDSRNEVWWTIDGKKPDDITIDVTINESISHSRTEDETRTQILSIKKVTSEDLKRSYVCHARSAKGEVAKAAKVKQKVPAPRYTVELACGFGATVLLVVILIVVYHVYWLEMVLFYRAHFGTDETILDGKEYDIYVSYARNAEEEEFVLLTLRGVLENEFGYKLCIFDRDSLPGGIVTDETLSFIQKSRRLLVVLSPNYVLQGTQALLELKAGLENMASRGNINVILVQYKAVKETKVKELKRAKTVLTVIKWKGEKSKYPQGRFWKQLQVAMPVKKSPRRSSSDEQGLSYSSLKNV
Kind of assay: cell-based or functional assay.

Assay [3] deals with T1, hu-M-IL1RAP construct, positions …. Put plainly: SPR, IgG analyte (apparent), 37 C, pH 6. For orientation: SPR reads the build-up and loss of mass on a sensor chip optically.
Experimental: (§1) Surface plasmon resonance (SPR) analysis was used to determine binding affinity for hu-M-IL1RAP of the purified Fabs containing the selected single, double, and triple mutations in either the VL or VH regions using a BIACORE™ 8K instrument. […] For kinetics measurements, 5 nM biotinylated hu-M-IL1RAP was captured at 10 μL/min to achieve ˜50 response units in the second flow cell (FC2). FC1 was kept as a reference. […] The sensorgrams were recorded and subjected to reference and buffer subtraction before data analysis with the BIACORE® 8K Evaluation Software (version 1.1.1.7442). Association rates (kₒₙ) and dissociation rates (koff) were calculated using a simple one-to-one Langmuir binding model. The equilibrium dissociation constant (KD) was calculated as the ratio of koff/kₒₙ.
The target of assay [4] is T3, cyno-M-IL1RAP construct, positions S21-T367 (cynomolgus monkey, UniProt P59822 21-367 (rhesus entry)).
T3 construct: Biotinylated when captured on the Biacore chip; also called cy-M-IL1RAP
T3 sequence: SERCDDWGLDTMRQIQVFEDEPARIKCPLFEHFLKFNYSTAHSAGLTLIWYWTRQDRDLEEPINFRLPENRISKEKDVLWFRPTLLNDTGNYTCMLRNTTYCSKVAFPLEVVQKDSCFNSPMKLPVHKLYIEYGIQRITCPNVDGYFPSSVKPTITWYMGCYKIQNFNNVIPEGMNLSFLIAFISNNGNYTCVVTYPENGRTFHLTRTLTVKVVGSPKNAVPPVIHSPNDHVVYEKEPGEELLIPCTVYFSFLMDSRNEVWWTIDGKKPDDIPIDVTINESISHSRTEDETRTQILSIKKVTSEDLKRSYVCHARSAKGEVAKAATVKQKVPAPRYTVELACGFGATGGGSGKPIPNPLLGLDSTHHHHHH
Kind of assay: SPR, IgG analyte (apparent), 37 C, pH 6.
Experimental: as §1

For assay [5], the target named is T2, human IL1RAP (hu-IL1RAP) on human cells. Put plainly: cell-based or functional assay. This is another data set of the same source.
Assay [6] deals with T1, hu-M-IL1RAP construct, positions …. Put plainly: SPR, 37 C.
Experimental: as §1
The target in assay [7] is T3, cyno-M-IL1RAP construct, positions …. Kind of assay: SPR, 37 C.
Experimental: as §1
In assay [8] the target is T1, hu-M-IL1RAP construct, positions …. Put plainly: SPR, IgG analyte (apparent), 37 C, pH 7.4.
Experimental: as §1
For assay [9], the target named is T3, cyno-M-IL1RAP construct, positions …. Put plainly: SPR, IgG analyte (apparent), 37 C, pH 7.4.
Experimental: as §1

B1: m11C5_C59S (antibody, mouse IgG2a, V domains shown)
VH: EVQLVESGGGLVKPGGSLKLSCAASGFTFSNYAMSWVRQTPEKRLEWVATVTEGGDYNYSLDDVKGRFTISRDNANDNLYLQMSHLKSEDSARYYCARDRWPYFFDYWGQGTTLTVSS
VL: DIQMTQSPASLSVSVGETVTITCRASENIYSNLAWYQQKQGRSPQLLVYGAKNLADGVPSRFSGSGSGTQYSLNINSLQSEDFGTYYCQHFWTTPRTFGGGTKLEIK
notes: Murine IgG2a constant domains
In turn, B1 displayed a Kd in assay [1] of 0.598 nM.

B2: m11C5 (recombinant murine 11C5) (antibody, mouse IgG2a, V domains shown)
VH: EVQLVESGGGLVKPGGSLKLSCAASGFTFSNYAMSWVRQTPEKRLEWVATVTEGGDYNYCLDDVKGRFTISRDNANDNLYLQMSHLKSEDSARYYCARDRWPYFFDYWGQGTTLTVSS
VL: DIQMTQSPASLSVSVGETVTITCRASENIYSNLAWYQQKQGRSPQLLVYGAKNLADGVPSRFSGSGSGTQYSLNINSLQSEDFGTYYCQHFWTTPRTFGGGTKLEIK
notes: Murine IgG2a constant domains
As for B2, in [2], the “HEK-Blue, IL-1β, IC50” value was 0.705 nM and the “HEK-Blue, IL-33, IC50” value was 2.25 nM. This molecule displayed a Kd in assay [1] of 0.37 nM.

B3: c11C5 (chimeric 11C5) (antibody, IgG1, V domains shown)
VH: EVQLVESGGGLVKPGGSLKLSCAASGFTFSNYAMSWVRQTPEKRLEWVATVTEGGDYNYCLDDVKGRFTISRDNANDNLYLQMSHLKSEDSARYYCARDRWPYFFDYWGQGTTLTVSS
VL: DIQMTQSPASLSVSVGETVTITCRASENIYSNLAWYQQKQGRSPQLLVYGAKNLADGVPSRFSGSGSGTQYSLNINSLQSEDFGTYYCQHFWTTPRTFGGGTKLEIK
notes: Murine VL and VH, human CL and IgG1 CH1-CH3 domains
In turn, B3 returned a Kd in assay [1] of 0.699 nM.

B4: m11C5_C59T (antibody, mouse IgG2a, V domains shown)
VH: EVQLVESGGGLVKPGGSLKLSCAASGFTFSNYAMSWVRQTPEKRLEWVATVTEGGDYNYTLDDVKGRFTISRDNANDNLYLQMSHLKSEDSARYYCARDRWPYFFDYWGQGTTLTVSS
VL: DIQMTQSPASLSVSVGETVTITCRASENIYSNLAWYQQKQGRSPQLLVYGAKNLADGVPSRFSGSGSGTQYSLNINSLQSEDFGTYYCQHFWTTPRTFGGGTKLEIK
notes: Murine IgG2a constant domains
For B4, the Kd in [1] was determined as 1.38 nM.

B5: m11C5_C59Y (antibody, mouse IgG2a, V domains shown)
VH: EVQLVESGGGLVKPGGSLKLSCAASGFTFSNYAMSWVRQTPEKRLEWVATVTEGGDYNYYLDDVKGRFTISRDNANDNLYLQMSHLKSEDSARYYCARDRWPYFFDYWGQGTTLTVSS
VL: DIQMTQSPASLSVSVGETVTITCRASENIYSNLAWYQQKQGRSPQLLVYGAKNLADGVPSRFSGSGSGTQYSLNINSLQSEDFGTYYCQHFWTTPRTFGGGTKLEIK
notes: Murine IgG2a constant domains
In [1], B5 displayed a Kd of 0.524 nM.

B6: m11C5_C59V (antibody, mouse IgG2a, V domains shown)
VH: EVQLVESGGGLVKPGGSLKLSCAASGFTFSNYAMSWVRQTPEKRLEWVATVTEGGDYNYVLDDVKGRFTISRDNANDNLYLQMSHLKSEDSARYYCARDRWPYFFDYWGQGTTLTVSS
VL: DIQMTQSPASLSVSVGETVTITCRASENIYSNLAWYQQKQGRSPQLLVYGAKNLADGVPSRFSGSGSGTQYSLNINSLQSEDFGTYYCQHFWTTPRTFGGGTKLEIK
notes: Murine IgG2a constant domains
As for B6, the Kd in assay [1] was 0.604 nM.

B7: h11C5_C59Y (C59Y variant of h11C5) (antibody, human IgG1, V domains shown)
VH: EVQLVESGGGLVQPGGSLRLSCAASGFTFSNYAMSWVRQAPGKGLEWVATVTEGGDYNYYLDDVKGRFTISRDNAKNSLYLQMNSLRAEDTAVYYCARDRWPYFFDYWGQGTLVTVSS
VL: DIQMTQSPSSLSASVGDRVTITCRASENIYSNLAWYQQKPGKAPKLLVYGAKNLADGVPSRFSGSGSGTDYTLTISSLQPEDFATYYCQHFWTTPRTFGGGTKVEIK
notes: Human IgG1/kappa constant domains
For the molecule B7, in [2], the “HEK-Blue, IL-1β, IC50” value was determined as 1.03 nM and the “HEK-Blue, IL-33, IC50” value came out at 3.75 nM. In assay [1], this molecule returned a Kd of 1.34 nM.

B8: h11C5 variant K17/H3 IgG (YKS) (antibody, V domains shown)
VH: EVQLVESGGGLVQPGGSLRLSCAASGFTFSNYAMSWVRQAPGKGLEWVATSTEGGDYNYYLDDVKGRFTISRDNAKNSLYLQMNSLRAEDTAVYYCARDRWPYFFDYWGQGTLVTVSS
VL: DIQMTQSPSSLSASVGDRVTITCRASENIYSNLAWYQQKPGKSPKLLVYGYKNLADGVPSRFSGSGSGTDYTLTISSLQPEDFATYYCQHFKTTPRTFGGGTKVEIKR
notes: Human IgG1 N297G; also called 11C5-YKS
Usually koff stands for the first-order rate constant of dissociation. In general, kon refers to a measure of how fast the partners come together. Regarding B8, in [3], the Kd stood at 0.0962 nM, the koff amounted to 0.000182 s⁻¹ and the kon came out at 1.9e+06 M⁻¹ s⁻¹. Moreover, in [4], the Kd worked out at 0.101 nM, the koff was found to be 0.000121 s⁻¹ and the kon is 1.2e+06 M⁻¹ s⁻¹. Also, in [5], the “HEK-Blue, IL-1β, % inhibition at 100 nM (IgG)” value is 100%; the “HEK-Blue, IL-1β, IC50 (IgG)” value was 0.429 nM; the “HEK-Blue, IL-33, % inhibition at 100 nM (IgG)” value amounted to 87%; the “HEK-Blue, IL-33, IC50 (IgG)” value was determined as 2.5 nM. In assay [5], the “HEK-Blue, IL-36α, % inhibition at 100 nM (IgG)” value was found to be 96% and the “HEK-Blue, IL-36α, IC50 (IgG)” value was 0.418 nM. In [6], the “KD (6)/KD (7.4)” value is 4.3 ratio, the “KD (7.4) ratio to YIS” value was determined as 1.1 ratio and the “koff (6) ratio to YIS” value amounted to 1.2 ratio. In assay [7], the “KD (6)/KD (7.4)” value worked out at 4.6 ratio, the “KD (7.4) ratio to YIS” value turned out to be 1.6 ratio and the “koff (6) ratio to YIS” value came to 1.7 ratio. Besides, in assay [8], the Kd is 0.0226 nM, the dissociation rate constant (koff) is 3.87e-05 s⁻¹ and the kon was determined as 1.71e+06 M⁻¹ s⁻¹. Also, in [9], the Kd was 0.0221 nM, the koff stood at 4.51e-05 s⁻¹ and the kon stood at 2.04e+06 M⁻¹ s⁻¹.

B9: h11C5 variant K13/H2 IgG (YID) (antibody, V domains shown)
VH: EVQLVESGGGLVQPGGSLRLSCAASGFTFSNYAMSWVRQAPGKGLEWVATVTEGGDYNYYLDDVKGRFTISRDNAKNSLYLQMNSLRAEDTAVYYCARDDWPYFFDYWGQGTLVTVSS
VL: DIQMTQSPSSLSASVGDRVTITCRASENIYSNLAWYQQKPGKSPKLLVYGYKNLADGVPSRFSGSGSGTDYTLTISSLQPEDFATYYCQHFITTPRTFGGGTKVEIKR
notes: Human IgG1 N297G; also called 11C5-YID
On to B9, for which, in assay [3], the Kd was 0.141 nM, the koff is 0.000414 s⁻¹ and the kon turned out to be 2.94e+06 M⁻¹ s⁻¹. Besides, in assay [4], the Kd turned out to be 0.0993 nM, the off-rate constant (koff) stood at 0.000215 s⁻¹ and the kon stood at 2.16e+06 M⁻¹ s⁻¹. Besides, in [5], the “HEK-Blue, IL-1β, % inhibition at 100 nM (IgG)” value came to 100%; the “HEK-Blue, IL-1β, IC50 (IgG)” value came out at 0.361 nM; the “HEK-Blue, IL-33, % inhibition at 100 nM (IgG)” value is 99%; the “HEK-Blue, IL-33, IC50 (IgG)” value came out at 1.52 nM. Also, in assay [5], the “HEK-Blue, IL-36α, % inhibition at 100 nM (IgG)” value turned out to be 100% and the “HEK-Blue, IL-36α, IC50 (IgG)” value was determined as 0.477 nM. In assay [6], the “KD (6)/KD (7.4)” value worked out at 10 ratio, the “KD (7.4) ratio to YIS” value was found to be 0.66 ratio and the “koff (6) ratio to YIS” value was determined as 2.8 ratio. Also, in assay [7], the “KD (6)/KD (7.4)” value turned out to be 4.1 ratio, the “KD (7.4) ratio to YIS” value is 1.7 ratio and the “koff (6) ratio to YIS” value turned out to be 3 ratio. In [8], the Kd stood at 0.014 nM, the koff is 2.69e-05 s⁻¹ and the kon was found to be 1.93e+06 M⁻¹ s⁻¹. In addition, in assay [9], the Kd was 0.0244 nM, the dissociation rate constant (koff) amounted to 4.62e-05 s⁻¹ and the kon is 1.89e+06 M⁻¹ s⁻¹.

B10: h11C5 (humanized 11C5 mAb) (antibody, human IgG1, kappa, N297G, V domains shown)
VH: EVQLVESGGGLVQPGGSLRLSCAASGFTFSNYAMSWVRQAPGKGLEWVATVTEGGDYNYCLDDVKGRFTISRDNAKNSLYLQMNSLRAEDTAVYYCARDRWPYFFDYWGQGTLVTVSS
VL: DIQMTQSPSSLSASVGDRVTITCRASENIYSNLAWYQQKPGKAPKLLVYGAKNLADGVPSRFSGSGSGTDYTLTISSLQPEDFATYYCQHFWTTPRTFGGGTKVEIKR
notes: Human IgG1/kappa
B10: in assay [2], the “HEK-Blue, IL-1β, IC50” value amounted to 3.12 nM; the “HEK-Blue, IL-33, % inhibition at 100 nM” value worked out at 80%; the “HEK-Blue, IL-33, IC50” value amounted to 24 nM. Also, the Kd in assay [1] came out at 1.06 nM.
